Assay results as given in patent US20240270821A1, “GIP/GLP1/GCG TRI-RECEPTOR AGONISTS AND USES THEREOF” (priority 2023, published 2024).
Changes are numbered by the printed parent chain.

T1: human GIP receptor (human) (UniProt P48546)
T1 sequence (looked up): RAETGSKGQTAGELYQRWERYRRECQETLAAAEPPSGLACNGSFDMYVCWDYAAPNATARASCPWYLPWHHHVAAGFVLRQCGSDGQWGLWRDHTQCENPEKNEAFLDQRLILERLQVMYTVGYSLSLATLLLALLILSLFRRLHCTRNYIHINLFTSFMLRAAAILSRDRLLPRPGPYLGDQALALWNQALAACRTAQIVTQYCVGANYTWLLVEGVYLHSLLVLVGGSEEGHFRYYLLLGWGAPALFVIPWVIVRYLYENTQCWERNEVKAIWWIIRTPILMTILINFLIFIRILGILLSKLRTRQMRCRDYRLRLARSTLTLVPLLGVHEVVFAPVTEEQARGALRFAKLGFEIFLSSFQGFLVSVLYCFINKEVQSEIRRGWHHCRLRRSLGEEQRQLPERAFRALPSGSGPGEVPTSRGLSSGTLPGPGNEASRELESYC

B1: Example 145 (peptide)
chain: YXQGTFTSDFSXXLDKKAQXAFIEYLLEGGESSGAPPPSGS
modifications: synthetic construct; SITE 2: note = 2-Aminoisobutyric Acid; SITE 12: note = L-ornithine; SITE 13: note = alpha-methyl-leucine; SITE 17: note = Lysine is chemically modified through conjugation of the epsilon-amino group of the Lysine side chain with (2-[2-(2-Amino-ethoxy)-ethoxy]-acetyl)-(gamma-Glu)
B2: Example 147 (peptide)
chain: B1 chain with X12K
modifications: Aib, αMeL, (AEEA)2-γGlu-C18 diacid lysine acylation, C-terminal amide; synthetic construct; SITE 2: note = 2-Aminoisobutyric Acid; SITE 13: note = alpha-methyl-leucine; SITE 17: note = Lysine is chemically modified through conjugation of the epsilon-amino group of the Lysine side chain with (2-[2-(2-Amino-ethoxy)-ethoxy]-acetyl)2-(gamma-Glu)-CO-(CH2 )16-CO2H; SITE 20:
B3: Example 149 (peptide)
chain: B1 chain with X12R
modifications: Aib, alpha-methyl-Leu, lipidated Lys, C-terminal amide; synthetic construct; SITE 2: note = 2-Aminoisobutyric Acid; SITE 13: note = alpha-methyl-leucine; SITE 17: note = Lysine is chemically modified through conjugation of the epsilon-amino group of the Lysine side chain with (2-[2-(2-Amino-ethoxy)-ethoxy]-acetyl)2-(gamma-Glu)-CO-(CH2 )16-CO2H; SITE 20:
B4: Example 150 (peptide)
chain: B1 chain with X12Q, E31P
modifications: Aib, αMeL; lipidated Lys; C-terminal amide; synthetic construct; SITE 2: note = 2-Aminoisobutyric Acid; SITE 13: note = alpha-methyl-leucine; SITE 17: note = Lysine is chemically modified through conjugation of the epsilon-amino group of the Lysine side chain with (2-[2-(2-Amino-ethoxy)-ethoxy]-acetyl)-(gamma-Glu)-CO-(CH2) 16-CO2H; SITE 20: n
B5: Example 152 (peptide)
chain: B1 chain with E28A, E31P, A35E, S39E
modifications: Aib, Orn, αMeL; acylated Lys (AEEA-γGlu-C18 diacid); C-terminal amide; synthetic construct; SITE 2: note = 2-Aminoisobutyric Acid; SITE 12: note = L-ornithine; SITE 13: note = alpha-methyl-leucine; SITE 17: note = Lysine is chemically modified through conjugation of the epsilon-amino group of the Lysine side chain with (2-[2-(2-Amino-ethoxy)-ethoxy]-acetyl)-(gamma-Glu)
B6: Example 153 (peptide)
chain: B1 chain with E28A, E31P, A35E
modifications: Aib, Orn, αMeL; acylated Lys (AEEA-γGlu2-C18 diacid); C-terminal amide; synthetic construct; SITE 2: note = 2-Aminoisobutyric Acid; SITE 12: note = L-ornithine; SITE 13: note = alpha-methyl-leucine; SITE 17: note = Lysine is chemically modified through conjugation of the epsilon-amino group of the Lysine side chain with (2-[2-(2-Amino-ethoxy)-ethoxy]-acetyl)-(gamma-Glu)
B7: Example 156 (peptide)
chain: B1 chain with G29A, E31P, A35E, S41T
modifications: (AEEA)2-γGlu-C18 diacid on Lys; non-natural residues; amide; synthetic construct; SITE 2: note = 2-Aminoisobutyric Acid; SITE 12: note = L-ornithine; SITE 13: note = alpha-methyl-leucine; SITE 17: note = Lysine is chemically modified through conjugation of the epsilon-amino group of the Lysine side chain with (2-[2-(2-Amino-ethoxy)-ethoxy]-acetyl)2-(gamma-Glu)
B8: Example 159 (peptide)
chain: B1 chain with E31P, S39G, S41Q
modifications: non-natural residues; lipidated Lys; C-terminal amide; synthetic construct; SITE 2: note = 2-Aminoisobutyric Acid; SITE 12: note = L-ornithine; SITE 13: note = alpha-methyl-leucine; SITE 17: note = Lysine is chemically modified through conjugation of the epsilon-amino group of the Lysine side chain with (2-[2-(2-Amino-ethoxy)-ethoxy]-acetyl)-(gamma-Glu)
B9: Example 160 (peptide)
chain: B1 chain with E31P, S39E, S41T
modifications: Aib, Orn, αMeL, acylated Lys, amide; synthetic construct; SITE 2: note = 2-Aminoisobutyric Acid; SITE 12: note = L-ornithine; SITE 13: note = alpha-methyl-leucine; SITE 17: note = Lysine is chemically modified through conjugation of the epsilon-amino group of the Lysine side chain with (2-[2-(2-Amino-ethoxy)-ethoxy]-acetyl)-(gamma-Glu)
B10: Example 161 (peptide)
chain: B1 chain with S39G
modifications: non-natural residues, lysine acylation, C-terminal amide; synthetic construct; SITE 2: note = 2-Aminoisobutyric Acid; SITE 12: note = L-ornithine; SITE 13: note = alpha-methyl-leucine; SITE 17: note = Lysine is chemically modified through conjugation of the epsilon-amino group of the Lysine side chain with (2-[2-(2-Amino-ethoxy)-ethoxy]-acetyl)-(gamma-Glu)

The binders below were run against T1, human GIP receptor (human) (assay: cell-based or functional assay).

| Binder | Relative cAMP EC50 [nM] | cAMP Rel EC50, nM (in the presence of 1% HSA) [nM] | Relative cAMP EC50, nM (0.1% casein) [nM] | cAMP Rel EC50, nM (1% HSA) [nM] |
| --- | --- | --- | --- | --- |
| B1 | 0.539 | 108 | – | – |
| B2 | – | – | 0.343 | 108 |
| B3 | – | – | 0.46 | 44.9 |
| B4 | – | – | 0.346 | 50.6 |
| B5 | – | – | 0.259 | 23.2 |
| B6 | – | – | 0.218 | 16.8 |
| B7 | – | – | 0.208 | 25.8 |
| B8 | – | – | 0.343 | 49.7 |
| B9 | – | – | 0.354 | 44.4 |
| B10 | – | – | 0.555 | 87.3 |

The binders below were run against human glucagon receptor (human) (UniProt P47871) (assay: cell-based or functional assay).
Chain of human glucagon receptor (human) (P47871 26-477): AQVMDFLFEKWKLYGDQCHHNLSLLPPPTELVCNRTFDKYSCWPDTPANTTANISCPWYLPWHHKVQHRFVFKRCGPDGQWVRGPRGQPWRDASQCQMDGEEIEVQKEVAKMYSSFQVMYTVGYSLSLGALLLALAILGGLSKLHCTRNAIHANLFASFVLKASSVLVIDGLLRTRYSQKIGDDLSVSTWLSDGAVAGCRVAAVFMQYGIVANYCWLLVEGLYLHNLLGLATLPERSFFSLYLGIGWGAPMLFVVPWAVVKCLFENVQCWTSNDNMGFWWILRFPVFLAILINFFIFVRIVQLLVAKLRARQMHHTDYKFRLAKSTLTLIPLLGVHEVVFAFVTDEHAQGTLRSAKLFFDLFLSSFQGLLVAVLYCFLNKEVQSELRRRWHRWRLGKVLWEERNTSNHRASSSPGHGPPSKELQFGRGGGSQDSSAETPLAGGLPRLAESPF

| Binder | Relative cAMP EC50 [nM] | cAMP Rel EC50, nM (in the presence of 1% HSA) [nM] | Relative cAMP EC50, nM (0.1% casein) [nM] | cAMP Rel EC50, nM (1% HSA) [nM] |
| --- | --- | --- | --- | --- |
| B1 | 3.14 | 693 | – | – |
| B2 | – | – | 4.39 | 877 |
| B3 | – | – | 12.6 | 1420 |
| B4 | – | – | 5.37 | 1920 |
| B5 | – | – | 6.91 | 1090 |
| B6 | – | – | 14.7 | 1210 |
| B7 | – | – | 3.62 | 1520 |
| B8 | – | – | 6.89 | 475 |
| B9 | – | – | 4.32 | 479 |
| B10 | – | – | 4.83 | 902 |

Each binder was assayed against hGLP-1R (Homo sapiens, UniProt P43220) (assay: cell-based or functional assay).
Chain of hGLP-1R (P43220 24-463): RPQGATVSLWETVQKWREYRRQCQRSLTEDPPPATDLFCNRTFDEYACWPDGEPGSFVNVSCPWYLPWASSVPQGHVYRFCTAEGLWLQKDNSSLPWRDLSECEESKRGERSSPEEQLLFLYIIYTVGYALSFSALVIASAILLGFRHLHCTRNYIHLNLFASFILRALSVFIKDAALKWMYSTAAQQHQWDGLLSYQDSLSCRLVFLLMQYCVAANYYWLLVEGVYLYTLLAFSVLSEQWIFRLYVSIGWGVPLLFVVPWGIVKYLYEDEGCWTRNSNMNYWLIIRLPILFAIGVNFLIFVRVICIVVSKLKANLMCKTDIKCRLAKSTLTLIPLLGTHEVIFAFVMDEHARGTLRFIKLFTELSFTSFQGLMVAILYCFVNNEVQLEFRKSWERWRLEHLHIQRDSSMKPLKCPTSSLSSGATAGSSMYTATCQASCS

| Binder | Relative cAMP EC50 [nM] | cAMP Rel EC50, nM (in the presence of 1% HSA) [nM] | Relative cAMP EC50, nM (0.1% casein) [nM] | cAMP Rel EC50, nM (1% HSA) [nM] |
| --- | --- | --- | --- | --- |
| B1 | 4.26 | 1480 | – | – |
| B2 | – | – | 4.26 | 964 |
| B3 | – | – | 3.85 | 801 |
| B4 | – | – | 2.63 | 463 |
| B5 | – | – | 4.03 | 491 |
| B6 | – | – | 7.09 | 488 |
| B7 | – | – | 3.37 | 695 |
| B8 | – | – | 4.15 | 588 |
| B9 | – | – | 5.39 | 482 |
| B10 | – | – | 5.22 | 963 |
